How the values were obtained:
[1] = molecular target: T1, IL-18 receptor (IL-18Rα and IL-18Rβ) on HEK-Blue IL-18 cells (UniProt Q13478); assay: cell-based or functional assay
T1 sequence (looked up) 1: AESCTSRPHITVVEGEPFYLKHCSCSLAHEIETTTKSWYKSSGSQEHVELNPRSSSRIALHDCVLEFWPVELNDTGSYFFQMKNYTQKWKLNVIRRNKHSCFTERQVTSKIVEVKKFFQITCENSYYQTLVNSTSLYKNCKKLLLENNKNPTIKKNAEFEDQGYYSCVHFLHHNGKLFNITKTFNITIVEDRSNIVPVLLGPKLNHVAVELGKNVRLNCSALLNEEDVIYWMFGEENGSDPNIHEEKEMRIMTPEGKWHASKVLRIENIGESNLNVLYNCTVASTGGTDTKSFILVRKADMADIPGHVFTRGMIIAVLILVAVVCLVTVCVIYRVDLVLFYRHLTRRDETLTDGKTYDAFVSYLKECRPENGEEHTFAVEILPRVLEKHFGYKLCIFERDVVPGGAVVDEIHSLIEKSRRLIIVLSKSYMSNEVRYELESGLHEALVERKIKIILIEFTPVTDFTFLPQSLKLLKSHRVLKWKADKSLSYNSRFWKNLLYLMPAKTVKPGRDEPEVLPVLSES
T1 sequence (looked up) 2: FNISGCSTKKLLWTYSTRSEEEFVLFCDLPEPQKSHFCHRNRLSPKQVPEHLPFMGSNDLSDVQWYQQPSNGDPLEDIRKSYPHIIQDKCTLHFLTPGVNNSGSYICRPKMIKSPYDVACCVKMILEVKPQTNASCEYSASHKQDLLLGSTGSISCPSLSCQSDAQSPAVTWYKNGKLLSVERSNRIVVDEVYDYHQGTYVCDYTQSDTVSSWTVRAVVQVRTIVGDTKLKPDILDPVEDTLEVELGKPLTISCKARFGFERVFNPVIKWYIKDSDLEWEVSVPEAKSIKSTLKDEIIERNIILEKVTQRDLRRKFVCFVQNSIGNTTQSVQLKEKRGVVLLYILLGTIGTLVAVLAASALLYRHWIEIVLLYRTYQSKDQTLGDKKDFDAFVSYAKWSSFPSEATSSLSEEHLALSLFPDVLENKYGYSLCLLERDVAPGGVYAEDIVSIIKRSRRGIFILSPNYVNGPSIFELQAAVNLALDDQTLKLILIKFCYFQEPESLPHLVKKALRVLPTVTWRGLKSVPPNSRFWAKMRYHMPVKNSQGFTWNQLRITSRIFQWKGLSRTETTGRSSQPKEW

[2] = molecular target: T2, IL-18 receptor (IL-18Rα/IL-18Rβ) on human PBMCs (human) (UniProt Q13478); assay: cell-based or functional assay
T2 sequence (looked up) 1: T1 sequence (looked up) 1
T2 sequence (looked up) 2: T1 sequence (looked up) 2

Sequence of Human IL-18 (Q14116 37-193 limits assumed): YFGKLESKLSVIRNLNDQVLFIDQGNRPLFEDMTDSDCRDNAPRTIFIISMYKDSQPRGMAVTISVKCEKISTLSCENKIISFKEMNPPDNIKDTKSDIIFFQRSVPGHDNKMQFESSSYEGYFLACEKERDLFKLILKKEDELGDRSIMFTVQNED

Human IL-18 (from UniProt Q14116 37-193) (ligand)
HEK-Blue: Abs 405 at 100 nM [1]: 2.6 absorbance | HEK-Blue: Fold over background [1]: 14.4 fold | Calculated maximum induction of IFN-γ after 24 hours, donor 1 [2]: 42000 | Calculated maximum induction of IFN-γ after 24 hours, donor 2 [2]: 5300 | Calculated maximum induction of IFN-γ after 24 hours, donor 3 [2]: 89000 | Calculated maximum induction of IFN-γ after 24 hours, donor 4 [2]: 69000 | Calculated maximum induction of IFN-γ after 24 hours, donor 5 [2]: 150000 | Calculated maximum induction of IFN-γ after 24 hours, donor 6 [2]: 28000

Reference: US20250179197A1
